B1: S. cerevisiae Vps1 G436D (natural protein)
chain: MDEHLISTINKLQDALAPLGGGSQSPIDLPQITVVGSQSSGKSSVLENIVGRDFLPRGTGIVTRRPLVLQLINRRPKKSEHAKVNQTANELIDLNINDDDKKKDESGKHQNEGQSEDNKEEWGEFLHLPGKKFYNFDEIRKEIVKETDKVTGANSGISSVPINLRIYSPHVLTLTLVDLPGLTKVPVGDQPPDIERQIKDMLLKYISKPNAIILSVNAANTDLANSDGLKLAREVDPEGTRTIGVLTKVDLMDQGTDVIDILAGRVIPLRYGYIPVINRGQKDIEHKKTIREALENERKFFENHPSYSSKAHYCGTPYLAKKLNSILLHHIRQTLPEIKAKIEATLKKYQNELINLGPETMDSASSVVLSMITDFSNEYAGILDGEAKELSSQELSGGARISYVFHETFKNGVDSLDPFDQIKDSDIRTIMYNSSDSAPSLFVGTEAFEVLVKQQIRRFEEPSLRLVTLVFDELVRMLKQIISQPKYSRYPALREAISNQFIQFLKDATIPTNEFVVDIIKAEQTYINTAHPDLLKGSQAMVMVEEKLHPRQVAVDPKTGKPLPTQPSSSKAPVMEEKSGFFGGFFSTKNKKKLAALESPPPVLKATGQMTERETMETEVIKLLISSYFSIVKRTIADIIPKALMLKLIVKSKTDIQKVLLEKLYGKQDIEELTKENDITIQRRKECKKMVEILRNASQIVSSV

Key:
[1] = biological target: C. thermophilum Vps1 GG (minimal GTPase-BSE fusion) (C. thermophilum); assay: SEC-MALS
SEC-MALS = biological target: the molecule itself; assay: SEC-MALS

Molecule | stoichiometry N [1] | stoichiometry N (SEC-MALS)
C. thermophilum Vps1 GG (minimal GTPase-BSE fusion) (domain or fragment) | 2 | –
B1 | – | 2

— article PMC6168280 (The Journal of Cell Biology, 2018)
